The data set concerns Bacillus subtilis. Description: cleaved RNA product abundance (RNA/gDNA barcode ratio) relative to median wild-type variant (ratio to wild type); higher = more accumulation of the downstream cleavage product. Summed up: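 Reporter mRNAs based on truncated aprE or tetM carried barcoded, mutagenized RNase Y cleavage-site windows built from oligos with a 9% error rate and were integrated into the B. subtilis chromosome. Cultures grew in LB at 37°C from OD600 0.0003 to 0.3. Cleaved RNA was gel-selected, reverse transcribed and barcode-sequenced together with genomic DNA barcodes, and UMIs were collapsed. Cleaved product abundance is the per-construct ratio of RNA to gDNA barcodes, scaled to the median of constructs carrying the unmutated site.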

Where [1] appears, read: experiment (reporter, strain, medium): exp 2b: truncated aprE reporter, strain BJT200, cleavage site: cggR-gapA (positions -7 to +36 mutated).
[2] abbreviates: experiment (reporter, strain, medium): exp 4a: truncated aprE reporter, strain BJT201 with 2% xylose (RNase J1 expressed), cleavage site: cggR-gapA (positions -7 to +36 mutated).
Where [3] appears, read: experiment (reporter, strain, medium): exp 6: tetM reporter, strain 168, cleavage site: cggR-gapA (positions -7 to +36 mutated).
Setting [4] is: experiment (reporter, strain, medium): exp 8a: truncated aprE reporter, strain BJT201 with 2% xylose (RNase J1 expressed), cleavage site: glnRA (positions -5 to +31 mutated).

The source of these data is the supplement of paper PMC11780869.

For “ACAGACGAAGGAGCCGCAAAGAAGTTATTAAGGTATGAATAATCCCTTAATATAAATATCTCTCACTTATTTAAA”, the “cleaved RNA product abundance” value reads like this: under setting [1], 0.709; under setting [2], 0.461; under setting [3], 0.236.

Regarding “ACAGACGAAGGAGCCGCAAAGAAGTTATTAAGGAATGAATAACCCCTCAATATAAATATCTCTCACTTATTTAAA”, under setting [2], the “cleaved RNA product abundance” value amounted to 0.101.

As to “ACAGACGAAGGAGCCGCAAAGAAATTATTAAGGGATGAATAATTCCTCAATATAAATATCTCTCACTTATTTAAA”, the “cleaved RNA product abundance” value is, setting by setting: under setting [1], 0.457; under setting [2], 0.415.

Take “ACAGACGAAGGAGCCGCAAAGAAGTTATTAAGGCATGAATAATCCCTGAATATAAATATCTCTCACTTATTTAAA”: the “cleaved RNA product abundance” value is, setting by setting: under setting [1], 0.102; under setting [2], 0.0864.

As to “CGACATGTCCCGCTTCTTTCATTAATCCGTTAGCAACTGTTAAGCTATATACATTTACCTTTTAAGAGGAGGAAT”, under setting [4], the “cleaved RNA product abundance” value was determined as 0.279.

As for “ACAGACGAAGGAGCCGCAAAGAAGTAATTAAGGGATGAATAACCCCTCAATATAAATATCTCTCACTTATTTAAA”, under setting [2], the “cleaved RNA product abundance” value stood at 0.158.

For “ACAGACGAAGGAGCCGCAAACAAGTTATTAAGGAATGAATAATCCCTCAATATAAATATCTCTCACTTATTTAAA”, the “cleaved RNA product abundance” value by setting is: under setting [1], 0.115; under setting [2], 0.123; under setting [3], 0.139.

As for “ACAGACGAAGGAGCCGCAAAGAAGTTATTAAGGAATGAATGATCCCTCAATATAAATATCTCTCACTTATTTAAA”, the “cleaved RNA product abundance” value under setting [2] was 0.0629.

In the case of “CGACATGTCCCGCTTCTTTCATTAATCCGTTAGCAACTGTTTTGCAATATACATTAACCTTTTAAGAGGAGGAAT”, the “cleaved RNA product abundance” value under setting [4] was 0.691.

Regarding “ACAGACGAAGGAGCCGCATAGAAGTTATTAAGGGATGAATAATCCCTCAATTTAAATATCTCTCACTTATTTAAA”, the “cleaved RNA product abundance” value under setting [1] is 0.195.

As for “CGACATGTCCCGCTTCTTTCATTAATCCGTTAGCAACTGTATTGCTAAATACATTTACCTTTTAAGAGGAGGAAT”, the “cleaved RNA product abundance” value under setting [4] is 0.438.

“ACAGACGAAGGAGCCGCAAAGAAGTTATTAAGGGATGAATAATACCTCAATATATATATCTCTCACTTATTTAAA”: the “cleaved RNA product abundance” value under setting [2] worked out at 0.123.

With “CGACATGTCCCGCTTCTTTCATTAATCCGTTAGCAACTGTTTTGCTATATACATTAACCGTTTAAGAGGAGGAAT”, under setting [4], the “cleaved RNA product abundance” value was determined as 0.934.

With “CGACATGTCCCGCTTCTTTCATTAATCCGTTAGCAACTGTGTAGCTATATACATTTACCTTTTAAGAGGAGGAAT”, the “cleaved RNA product abundance” value under setting [4] turned out to be 0.23.

For “CGACATGTCCCGCTTCTTTCATTAATCCGTTAGCAACTGTATTGCTATATACATTTACGTTTTAAGAGGAGGAAT”, the “cleaved RNA product abundance” value under setting [4] was 1.16.

As to “ACAGACGAAGGAGCCGCAAAGAAGATAATAAGGGATGAATAATCCCTCAATATAAATATCTCTCACTTATTTAAA”, the “cleaved RNA product abundance” value under setting [2] stood at 0.227.

As to “ACAGACGAAGGAGCCGCAAAGAAGTTATCTAGGGATGAATAATCCCTCAATATAAATATCTCTCACTTATTTAAA”, the “cleaved RNA product abundance” value under setting [2] amounted to 0.316.

Regarding “ACAGACGAAGGAGCCGCAAAGAAGTTATTAAGGGATGAATAATCCTTCAATATAAATATCTCTCACTTATTTAAA”, the “cleaved RNA product abundance” value runs as follows: under setting [1], 0.442; under setting [2], 0.576; under setting [3], 0.617.

Regarding “ACAGACGAAGGAGCCGCAAAGAAATTATTAAGGGATCAATAATCCCTCAATATAAATATCTCTCACTTATTTAAA”, under setting [1], the “cleaved RNA product abundance” value amounted to 0.646.

Take “CGACATGTCCCGCTTCTTTCATTAATCCGTTAGCAACTGTTATGGTATATACATTTACCTTTTAAGAGGAGGAAT”: the “cleaved RNA product abundance” value under setting [4] was 0.161.

Regarding “CGACATGTCCCGCTTCTTTCATTAATCCGTTAGCAACTGTTTTCCTATAGACATTTACCTTTTAAGAGGAGGAAT”, the “cleaved RNA product abundance” value under setting [4] was 0.36.

Regarding “ACAGACGAAGGAGCCGCAAAGAAGTTATAAAGGGATGAATAAACCCTCAATATAAATATCTCTCACTTATTTAAA”, the “cleaved RNA product abundance” value was determined as 0.145 under setting [1] and 0.197 under setting [2].

For “ACAGACGAAGGAGCCGCAAAGAACTTATTAAGGGATGAATAATTCCTCAATATAAATATCTCTCACTTATTTAAA”, the “cleaved RNA product abundance” value under setting [1] was determined as 0.315 and the “cleaved RNA product abundance” value under setting [2] is 0.32.

“ACAGACGAAGGAGCCGCAAAGAAGTTATTAAGGGATGAATGATCCCTCAATATAAATATCTCTCACTTATTTAAA”: the “cleaved RNA product abundance” value is, setting by setting: under setting [1], 0.466; under setting [2], 0.699; under setting [3], 0.63.

With “ACAGACGAAGGAGCCGCAAAGAAGTTATTAAGGGATTAATAATCCCTCAATCTAAATATCTCTCACTTATTTAAA”, under setting [1], the “cleaved RNA product abundance” value is 0.164.

Consider “CGACATGTCCCGCTTCTTTCATTAATCCGTTAGCAACTGTTTTGCTATATACACTTAACTTTTAAGAGGAGGAAT”, for which the “cleaved RNA product abundance” value under setting [4] is 0.785.

With “ACAGACGAAGGAGCCGCAAAGAAGTTATTATGGGATGAATAATCCCTCAATATACATATCTCTCACTTATTTAAA”, the “cleaved RNA product abundance” value under setting [2] worked out at 0.538.

As to “ACAGACGAAGGAGCCGCAAAGAAGTTATTAAGGGATGAATAATCCCTCTGTATAAATATCTCTCACTTATTTAAA”, the “cleaved RNA product abundance” value reads like this: under setting [1], 0.163; under setting [2], 0.224.

Consider “CGACATGTCCCGCTTCTTTCATTAATCCGTTAGCAACTGTTTTGATAAATACATTTACCTTTTAAGAGGAGGAAT”, for which the “cleaved RNA product abundance” value under setting [4] was 0.384.

Turning to “CGACATGTCCCGCTTCTTTCATTAATCCGTAAGCAACTGTTTTGCTATATACATTTACCTTTTAAGAGGAGGAAT”, the “cleaved RNA product abundance” value under setting [4] is 0.434.

Turning to “ACAGACGAAGGAGCCGCAAAGAAGTTATTAAGGGAAGCATAATCCCTCAATATAAATATCTCTCACTTATTTAAA”, the “cleaved RNA product abundance” value under setting [2] is 0.551.

On to “ACAGACGAAGGAGCCGCAAAAAAGTTATGAAGGGATGAATAATCCCTCAATATAAATATCTCTCACTTATTTAAA”, for which the “cleaved RNA product abundance” value under setting [2] came to 0.453.

Regarding “CGACATGTCCCGCTTCTTTCATTAATCAGTTAGCAACTGTTTTGCTATATACATTTAACTTTTAAGAGGAGGAAT”, under setting [4], the “cleaved RNA product abundance” value amounted to 0.983.

Consider “ACAGACGAAGGAGCCGCAAAGAACTTATTTAGGGATGAATAATCCCTCAATATAAATATCTCTCACTTATTTAAA”, for which the “cleaved RNA product abundance” value under setting [1] is 0.442 and the “cleaved RNA product abundance” value under setting [2] stood at 0.321.

As for “CGACATGTCCCGCTTCTTTCATTATTCCGTTAGCAACTGTTTTACTATATACATTTACCTTTTAAGAGGAGGAAT”, the “cleaved RNA product abundance” value under setting [4] worked out at 0.812.

Consider “ACAGACGAAGGAGCCGCAAAGAAGTTATTAAGGGATTAATAATGCCTCAATATAAATATCTCTCACTTATTTAAA”, for which the “cleaved RNA product abundance” value under setting [1] stood at 0.14 and the “cleaved RNA product abundance” value under setting [2] turned out to be 0.125.

In the case of “ACAGACGAAGGAGCCGCAAAGAAGTTATTAAGGGTTGAATAAACCCTCAATATAAATATCTCTCACTTATTTAAA”, the “cleaved RNA product abundance” value under setting [1] came out at 1.07 and the “cleaved RNA product abundance” value under setting [2] was 0.406.

“ACAGACGAAGGAGCCGCAAAGAAATTATTAAGGGATGAATAATCCCACAATATAAATATCTCTCACTTATTTAAA”: the “cleaved RNA product abundance” value under setting [1] came out at 0.195 and the “cleaved RNA product abundance” value under setting [2] stood at 0.298.

“CGACATGTCCCGCTTCTTTCATTAATCCTTTAACAACTGTTTTGCTATATACATTTACCTTTTAAGAGGAGGAAT”: the “cleaved RNA product abundance” value under setting [4] is 0.154.

Regarding “ACAGACGAAGGAGCCGCAAAAAAGTTATTAAGGGACGAATAATCCCTCAATATAAATATCTCTCACTTATTTAAA”, the “cleaved RNA product abundance” value was found to be 0.676 under setting [1] and 0.54 under setting [2].

Consider “ACAGACGAAGGAGCCGCAAAGAAGTTATTAAGGGATCAATAATCCCTTAATATAAATATCTCTCACTTATTTAAA”, for which the “cleaved RNA product abundance” value is 1.02 under setting [1] and 0.486 under setting [2].

For “CGACATGTCCCGCTTCTTTCATTAATCCGTCAGCAACTGTTTTGCTATATATATTTACCTTTTAAGAGGAGGAAT”, the “cleaved RNA product abundance” value under setting [4] worked out at 0.367.

Turning to “ACAGACGAAGGAGCCGCAAAGAAGTTATTAAGGTATGAATAATACCTCAATATAAATATCTCTCACTTATTTAAA”, the “cleaved RNA product abundance” value amounted to 1 under setting [1] and 1.16 under setting [2].

For “ACAGACGAAGGAGCCGCAAAGAAGTTATTAAGGGATGAATAATCTCTCAATATAAATATTTCTCACTTATTTAAA”, under setting [2], the “cleaved RNA product abundance” value came to 0.948.

On to “CGACATGTCCCGCTTCTTTCATTAATCCGTTAGCAACTGTTTTGTTATAGACATTTACCTTTTAAGAGGAGGAAT”, for which the “cleaved RNA product abundance” value under setting [4] came out at 0.265.

In the case of “ACAGACGAAGGAGCCGCAATGAAGTTATTAAGGGATGAATAATCGCTCAATATAAATATCTCTCACTTATTTAAA”, the “cleaved RNA product abundance” value under setting [2] turned out to be 0.0881.

Consider “CGACATGTCCCGCTTCTTTCATTAATCCGTTAGCAACTTTTTTGCTATAAACATTTACCTTTTAAGAGGAGGAAT”, for which, under setting [4], the “cleaved RNA product abundance” value stood at 1.58.

Consider “ACAGACGAAGGAGCCGCAAAGAAGTTATTAAGGGATGAATTATCCCTCAATATAAAAATCTCTCACTTATTTAAA”, for which, under setting [2], the “cleaved RNA product abundance” value amounted to 0.966.

On to “ACAGACGAAGGAGCCGCAAAGAAGTTATTAAGGGATGAATAATCAATCAATATAAATATCTCTCACTTATTTAAA”, for which the “cleaved RNA product abundance” value was 0.13 under setting [1] and 0.107 under setting [2].

Consider “CGACATGTCCCGCTTCTTTCATTAATCCGTTAGCAACTATTTTGCTATATACATTTACCCTTTAAGAGGAGGAAT”, for which, under setting [4], the “cleaved RNA product abundance” value was 0.937.

With “CGACATGTCCCGCTTCTTTCATTAATCCGTCAGCAACTGTTTTGCTATATACATTTACCTTTTAAGAGGAGGAAT”, the “cleaved RNA product abundance” value under setting [4] is 0.406.

For “ACAGACGAAGGAGCCGCAAAGAATTTATTAAGGGATGAAAAATCCCTCAATATAAATATCTCTCACTTATTTAAA”, the “cleaved RNA product abundance” value reads like this: under setting [1], 0.561; under setting [2], 0.35.
